Source: patent US9144594B2, “Cathepsin L mediated diseases and associated methods and products” (University of Miami, priority 2005, dated 2015)
Substitutions are numbered along the chain they refer to. Names may count otherwise. “Also recorded” adds a separate entry of the source.

B1: dynK44A: dominant-negative dynamin mutant that cannot bind GTP (protein, UniProt Q05193 1-864, looked up, variant K44A)
Dynamin-1: MGNRGMEDLIPLVNRLQDAFSAIGQNADLDLPQIAVVGGQSAGASSVLENFVGRDFLPRGSGIVTRRPLVLQLVNATTEYAEFLHCKGKKFTDFEEVRLEIEAETDRVTGTNKGISPVPINLRVYSPHVLNLTLVDLPGMTKVPVGDQPPDIEFQIRDMLMQFVTKENCLILAVSPANSDLANSDALKVAKEVDPQGQRTIGVITKLDLMDEGTDARDVLENKLLPLRRGYIGVVNRSQKDIDGKKDITAALAAERKFFLSHPSYRHLADRMGTPYLQKVLNQQLTNHIRDTLPGLRNKLQSQLLSIEKEVEEYKNFRPDDPARKTKALLQMVQQFAVDFEKRIEGSGDQIDTYELSGGARINRIFHERFPFELVKMEFDEKELRREISYAIKNIHGIRTGLFTPDMAFETIVKKQVKKIREPCLKCVDMVISELISTVRQCTKKLQQYPRLREEMERIVTTHIREREGRTKEQVMLLIDIELAYMNTNHEDFIGFANAQQRSNQMNKKKTSGNQDEILVIRKGWLTINNIGIMKGGSKEYWFVLTAENLSWYKDDEEKEKKYMLSVDNLKLRDVEKGFMSSKHIFALFNTEQRNVYKDYRQLELACETQEEVDSWKASFLRAGVYPERVGDKEKASETEENGSDSFMHSMDPQLERQVETIRNLVDSYMAIVNKTVRDLMPKTIMHLMINNTKEFIFSELLANLYSCGDQNTLMEESAEQAQRRDEMLRMYHALKEALSIIGDINTTTVSTPMPPPVDDSWLQVQSVPAGRRSPTSSPTPQRRAPAVPPARPGSRGPAPGPPPAGSALGGAPPVPSRPGASPDPFGPPPQVPSRPNRAPPGVPSRSGQASPSRPESPRPPFDL
B2: dynL356Q, G358V: dynamin mutant (SEQ ID NO.3) not recognized by cathepsin L; ELSGGA mutated to EQSVGA (protein, listed as Homo sapiens)
chain: B1 Dynamin-1 with A44K, L356Q, G358V
B3: dynR725A: dynamin mutant (SEQ ID NO.4) with impaired GTP hydrolysis capacity (protein, listed as Homo sapiens)
chain: B1 Dynamin-1 with A44K, R725A

Legend:
[1] = system: mice; assay: Protein in urine after in vivo gene delivery of dynamin mutants into healthy mice (Bradford); design: species or system mouse; conditions: for proteinuria after gene delivery, in words: healthy mice
Description: Next, the level of urinary protein loss following gene delivery of dynamin mutants was examined (Table 2). […] The expression of K44A was associated with severe proteinuria (1.18 mg/ml) at peak gene expression time of 10 hours post injection. The reduction in gene expression was paralleled by a reduction in proteinuria (0.77 mg/ml). Gene transfer of dynR725A caused an increase in proteinuria (0.58 mg/ml). Although this was not a significant increase, it is probable that it is a consequence of the partial podocyte FP effacement seen after gene transfer of dynR725A, and due to increase in the stress fibers formation observed in cultured podocytes.
To explore whether functional dynamin is required for the maintenance of FP morphology in healthy kidneys, it was examined whether expression of dominant negative dynK44A disrupts podocyte function. […] In contrast, podocin driven expression of dynK44A, the dynamin mutant that cannot bind GTP, caused FP effacement (FIG. 21B) and proteinuria (1.1±0.26 mg/ml) at the peak of gene expression […] after gene delivery (FIGS. 21D and 25C). […] In other words, tight regulation of the life-time of the GTP-bound form of dynamin appears to be required for normal FP morphology and ultrafiltration.
CatL plasmids encoding short and long CatL (Goulet et al., Biol Chem 387, 1285-1293 (2004)), Dyn1 plasmids (pcDNA-driven) or p2.5 Podocin-driven (Moeller et al., Genesis 35, 39-42 (2003)) were introduced into mice (n>10, each construct) using the TransIT in vivo gene delivery system according to the manufacturer's instruction (Mirus Bio Corporation, Madison, Wis.). 10 and 24 h after gene delivery, proteinuria was assessed by Multistix 8 SG strips (Bayer Corporation, Elkhart, Ind.), and Bradford protein assay (Sigma, Saint Louis, Mo.). From the same urines the protein creatinine ratio was determined with Albuwell M and Creatinine Companion protein creatinine ELISA kits (Exocell Inc., Philadelphia, Pa.).

[2] = system: cathepsin L; assay: Generation of dynamin p40 fragment in LPS-treated cultured podocytes (Western blot); type: cell-based, mouse; conditions: podocytes expressing the variant, LPS-treated
Description: Next, it was examined whether cathepsin L could process dynamin in vivo, and whether this processing required GTP binding by dynamin. To this end, cultured podocytes were infected with adenoviruses expressing dynWT as well as different dynamin mutants. Infected podocytes were subsequently treated with LPS. LPS treatment increases cathepsin L presence and the activity in the cytosol (FIG. 3), and thus is expected to induce generation of the 40 kD proteolytic fragment. Respective cytosols were probed using the GTPase antibodies in order to detect N-terminal 40 kD proteolytic fragment. Expression of dynWT in podocytes treated with LPS identified proteolytic fragments that traveled with the same mobility as fragments observed in vitro. […] Furthermore, significant amount of p40 was present in cells expressing dynR725A prior to LPS treatment. […] Given complete protection of cathepsin L cleavage by GTPγS, it was reasoned that LPS treatment was somehow inducing dynR725A self-assembly, which in turn was protecting dynR725A from cathepsin L cleavage. This in turn would explain ability of dynR725A to counteract LPS and PAN treatment (FIG. 1D). […] Biochemical difference between dynWT, dynK694A and dynR725A is that only dynR725A is impaired in the rate of GTP-hydrolysis of assembled dynamin. This is important because GTP-hydrolysis drives disassemble of dynamin. Thus, while all three dynamins are predicted to self-assemble by LPS treatment, only dynR725A will stay assembled due to its inability to hydrolyze GTP. Once assembled dynWT and dynK694A hydrolyze GTP they will fall apart and thus become accessible for cathepsin L cleavage.
To explore CatL-mediated dynamin cleavage in vivo, cultured podocytes were infected with adenoviruses encoding different dynamin mutants and subsequently treated with LPS (FIG. 19G). […] To confirm the identity of the cleavage site, the ELSGGA (SEQ ID NO.29) sequence was mutated to EQSVGA (SEQ ID NO.31) (for simplicity, the mutant is subsequently referred to as dynL356Q). […] Finally, a GTPase-defective dynamin mutant was examined. Dynamin carrying a mutation in its […] (dynR725A) oligomerizes, but is impaired in assembly-stimulated GTP-hydrolysis. DynR725A is therefore predicted to live longer in the assembled state.
(§1) Podocytes were grown under non-permissive conditions to 70% confluence. Cells were washed twice with 1×PBS and infected with 1.2 ml of serum-free DMEM media containing 100 μl transactivator virus, 100 μl virus expressing dyn1 or dyn2. After 2 h of infection at 37° C., media containing virus was replaced with full DMEM. If cells were treated with LPS or PAN, 50 μg/ml of LPS or 50 μg/ml PAN was added at this point. 18-24 h post-infection, cells were detached using trypsin and processed either for subcellular fractionation or tested in the motility assays as described in (Reiser et al., J Biol Chem 279, 34827-34832 (2004)). When stated, 20 μM of Z-FF-FMK CatL specific inhibitor (Calbiochem, San Diego, Calif.) was added simultaneously with addition of LPS.

[3] = system: podocytes; assay: Podocyte motility, modified Boyden chamber assay; type: cell-based, mouse; conditions: for podocyte motility, in words: adenoviral overexpression
Description: This study examined the role of dynamin in actin dynamics of podocytes. An adenoviral expression system was utilized to obtain expression of various dynamin mutants with more than 90% infection efficiency in cultured differentiated mouse podocytes and analyzed the organization of the actin cytoskeleton, their migratory and endocytotic behavior (FIG. 1). […] This type of actin rearrangement in cultured podocytes is resembling actin rearrangement in damaged podocytes during proteinuria in situ (Smoyer and Mundel, 1998). […] Thus, the consequence on actin dynamics in podocytes was examined when dynamin is hyperactive by expressing known dominant activators, dynK694A and dynR725A (SEQ ID NO.4). Both mutants are predicted to live longer in the GTP-bound form. […] To further examine this surprising phenotype in a biological context, motility assays were performed next using a modified Boyden Chamber assay.
Podocyte migration was analyzed using a 12-well chemotaxis chamber (Neuro Probe) according to the manufacturer's protocol. In brief, differentiated podocytes were treated with 50 μg/ml of LPS or PAN for 24 h and then harvested for the migration assay. Bottom plates were coated with type-I collagen, while upper plates were loaded with equal number of cells (5×10^4) suspended in medium. The chamber was incubated at 37° C. for 4 h before unassembled. The membrane was then taken out, processed and finally stained with diamidino phenylindole (DAPI) (Vector). The average number of migrated cells was counted in four fields in six independent experiments.
as §1

[4] = Table 2A, gene delivery into mice, t = 0
[5] = Table 2A, gene delivery into mice, t = 10 h
[6] = Table 2A, gene delivery into mice, t = 24 h
[7] = Table 5 Basic Phenotype, podocin-driven vectors, t = 14 h

cathepsin L, sequence (P06797 114-333 limits assumed): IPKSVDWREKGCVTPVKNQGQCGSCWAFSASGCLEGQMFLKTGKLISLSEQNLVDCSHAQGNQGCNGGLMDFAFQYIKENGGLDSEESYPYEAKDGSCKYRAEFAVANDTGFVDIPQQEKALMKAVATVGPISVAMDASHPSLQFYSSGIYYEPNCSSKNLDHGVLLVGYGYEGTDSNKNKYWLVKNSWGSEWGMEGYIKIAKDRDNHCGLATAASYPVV

Molecule | Protein in the urine [1, 4] [mg/mL] | Protein in the urine [1, 5] [mg/mL] | Protein in the urine [1, 6] [mg/mL] | proteinuria after gene delivery, in words [1] | p40 generation from dynamin variant, in words [2] | podocyte motility, in words [3] | Protein in the urine ([1]; Table 2A, gene delivery into mice, t = 10 h, listed as Dyn K44A) [mg/mL] | Protein in the urine ([1]; Table 2A, gene delivery into mice, t = 10 h, listed as K44A) [mg/mL] | Protein in the urine ([1]; Table 2A, gene delivery into mice, t = 24 h, listed as Dyn K44A) [mg/mL] | Protein in the urine ([1]; Table 2A, gene delivery into mice, t = 24 h, listed as K44A) [mg/mL] | Protein in the urine [1, 7] [mg/mL] | Protein in the urine ([1]; Table 2A, gene delivery into mice, t = 10 h, listed as Dyn R725A) [mg/mL] | LPS-induced increase in podocyte motility, in words ([3]; LPS-treated podocytes)
dynWT: wild type dynamin overexpressed by adenovirus or delivered as dynamin 1 cDNA | 0.27 ± 0.06 | 0.37 ± 0.08 | 0.42 ± 0.12 | did not lead to increase of the protein in urine | resulted in generation of p40 | did not change podocyte motility |  |  |  |  |  |  | 
B1 | 0.23 ± 0.11 |  |  |  | did not result in detectable levels of p40 | dramatically increased cell motility | 1.18 ± 0.22 | 1.18 | 0.77 ± 0.11 | 0.77 | 1.1 ± 0.26 |  | 
B2 | 0.22 ± 0.06 | 0.33 ± 0.21 | 0.40 ± 0.15 | did not result in proteinuria | yielded no p40 |  |  |  |  |  |  |  | 
B3 | 0.26 ± 0.13 | 0.58 | 0.20 ± 0.05 |  | completely abolished presence of the p40; also recorded: did not generate p40 | significantly decreased podocyte motility; also recorded: decreasing motility |  |  |  |  | 0.88 ± 0.21 | 0.58 ± 0.17 | blocked the LPS-induced increase in podocyte motility
